{"source": "paper PMC2946090", "about": "(Nature, 2010)", "proteins": {"B1": {"name": "CusA efflux pump (full-length CusA membrane protein with a 6xHis tag at the N-terminus) (natural protein, E. coli, UniProt P38054 1-1047, looked up)", "chain": "MIEWIIRRSVANRFLVLMGALFLSIWGTWTIINTPVDALPDLSDVQVIIKTSYPGQAPQIVENQVTYPLTTTMLSVPGAKTVRGFSQFGDSYVYVIFEDGTDPYWARSRVLEYLNQVQGKLPAGVSAELGPDATGVGWIYEYALVDRSGKHDLADLRSLQDWFLKYELKTIPDVAEVASVGGVVKEYQVVIDPQRLAQYGISLAEVKSALDASNQEAGGSSIELAEAEYMVRASGYLQTLDDFNHIVLKASENGVPVYLRDVAKVQIGPEMRRGIAELNGEGEVAGGVVILRSGKNAREVIAAVKDKLETLKSSLPEGVEIVTTYDRSQLIDRAIDNLSGKLLEEFIVVAVVCALFLWHVRSALVAIISLPLGLCIAFIVMHFQGLNANIMSLGGIAIAVGAMVDAAIVMIENAHKRLEEWQHQHPDATLDNKTRWQVITDASVEVGPALFISLLIITLSFIPIFTLEGQEGRLFGPLAFTKTYAMAGAALLAIVVIPILMGYWIRGKIPPESSNPLNRFLIRVYHPLLLKVLHWPKTTLLVAALSVLTVLWPLNKVGGEFLPQINEGDLLYMPSTLPGISAAEAASMLQKTDKLIMSVPEVARVFGKTGKAETATDSAPLEMVETTIQLKPQEQWRPGMTMDKIIEELDNTVRLPGLANLWVPPIRNRIDMLSTGIKSPIGIKVSGTVLADIDAMAEQIEEVARTVPGVASALAERLEGGRYINVEINREKAARYGMTVADVQLFVTSAVGGAMVGETVEGIARYPINLRYPQSWRDSPQALRQLPILTPMKQQITLADVADIKVSTGPSMLKTENARPTSWIYIDARDRDMVSVVHDLQKAIAEKVQLKPGTSVAFSGQFELLERANHKLKLMVPMTLMIIFVLLYLAFRRVGEALLIISSVPFALVGGIWLLWWMGFHLSVATGTGFIALAGVAAEFGVVMLMYLRHAIEAVPSLNNPQTFSEQKLDEALYHGAVLRVRPKAMTVAVIIAGLLPILWGTGAGSEVMSRIAAPMIGGMITAPLLSLFIIPAAYKLMWLHRHRVRK"}}, "target": "the molecule itself", "experiment": "crystal structure", "data": [{"protein": "B1", "values": [{"measurement": "stoichiometry N", "result": 3}]}]}
